Consider eight molecules from patent US20240084003A1 (SIMCERE ZAIMING PHARMACEUTICAL, published 2024).

For experiment [1], the target named is T1, CD22 on cynomolgus monkey peripheral blood B cells (cynomolgus monkey (Macaca fascicularis)).
T1 construct: whole, on cells; also called cynomolgus monkey B cells
Nature of the experiment: FACS, cynomolgus PBMC, CD20+ B cells, antibody 1 nM. In a few lines:
(§1)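 Fresh cynomolgus PBMC isolated on Ficoll were co-incubated with chimeric antibody and anti-human CD20 (monkey cross-reactive, BV605) for 1 h at room temperature, then APC anti-human IgG Fc for 30 min in the dark. By flow cytometry, value is the percentage of antibody-positive cells within gated CD20+ B cells.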

Experiment [2] has as its target T2, monkey CD22 protein (ACROBiosystems, catalog number SI2-R52Ha) (monkey, UniProt F6W485 20-688).
T2 construct: commercial protein; also called monkey CD22-ECD; monkey CD22-ECD-His
T2 sequence: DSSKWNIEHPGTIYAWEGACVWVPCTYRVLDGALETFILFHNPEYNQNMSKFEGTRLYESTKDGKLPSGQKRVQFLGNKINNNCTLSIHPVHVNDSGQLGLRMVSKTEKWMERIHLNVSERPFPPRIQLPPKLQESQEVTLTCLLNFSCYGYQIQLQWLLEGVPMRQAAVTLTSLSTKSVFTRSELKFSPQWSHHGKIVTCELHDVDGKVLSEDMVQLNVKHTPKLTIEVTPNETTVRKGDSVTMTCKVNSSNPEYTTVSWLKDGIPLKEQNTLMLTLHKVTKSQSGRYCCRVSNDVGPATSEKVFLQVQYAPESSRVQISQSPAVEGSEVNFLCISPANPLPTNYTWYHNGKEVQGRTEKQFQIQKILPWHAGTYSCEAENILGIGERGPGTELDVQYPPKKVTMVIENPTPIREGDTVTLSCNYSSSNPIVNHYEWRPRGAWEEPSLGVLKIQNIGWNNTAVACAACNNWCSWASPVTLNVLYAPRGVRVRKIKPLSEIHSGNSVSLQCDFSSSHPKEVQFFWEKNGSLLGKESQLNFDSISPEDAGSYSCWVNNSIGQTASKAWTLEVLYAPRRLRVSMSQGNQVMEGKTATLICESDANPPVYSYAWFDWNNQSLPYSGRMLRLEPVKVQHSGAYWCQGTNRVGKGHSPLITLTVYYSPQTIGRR
Nature of the experiment: ELISA, coated monkey CD22 protein, antibody 100 nM. In a few lines:
(§2)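 Coat 2 μg/mL CD22 in PBS, overnight 4° C; block PBS/2% BSA 2 h RT. Ab 2 h 37° C; HRP anti-species secondary 2 h 37° C. TMB 30 min RT, stop 1.0 N HCl.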
A general note: An ELISA detects its analyte on a solid surface through an enzyme-linked reagent.

For experiment [3], the target named is T2, monkey CD22 protein (ACROBiosystems, …). Nature of the experiment: ELISA, coated monkey CD22 protein, antibody 0.0001 nM. Put shortly:
as §2

The target is the same in experiment [4]. Nature of the experiment: ELISA, coated monkey CD22 protein, antibody 0.1 nM. In a few lines: as §2
For experiment [5] the target is unchanged. Nature of the experiment: ELISA, coated monkey CD22 protein, antibody 0.001 nM. Put shortly:
as §2

Experiment [6] has the same target. Nature of the experiment: ELISA, coated monkey CD22 protein, antibody 0.01 nM. In a few lines: as §2
Experiment [7] has as its target T1, CD22 on cynomolgus monkey peripheral …. Nature of the experiment: FACS, cynomolgus PBMC, CD20+ B cells, antibody 10 nM. In a few lines:
as §1
Background: Flow cytometry measures light scatter and fluorescence of single cells or particles in a stream.

Experiment [8] has the same target. Nature of the experiment: FACS, cynomolgus PBMC, CD20+ B cells, antibody 100 nM. Put shortly: as §1
Experiment [9] concerns the target T2, monkey CD22 protein (ACROBiosystems, …). Nature of the experiment: ELISA, coated monkey CD22 protein, antibody 0.00001 nM. In a few lines: as §2
Experiment [10] has the same target. Nature of the experiment: ELISA, coated monkey CD22 protein, antibody 10 nM. Put shortly:
as §2

B1: F2.121.9 (antibody, human IgG1, lambda, V domains shown)
VH: EVQLVESGGGLVKPGGSLKLSCAASGFTFSDYVMSWIRQTPEKRLEWVATISDAGSYTFYPDNLKGRFTISRDNAKNNLYLQMNHLTSEDTAFYYCAIIYFGNYGGYWGQGTLVTVSV
VL: QAVVTQESALTTSPGGTVVLTCRSNTGAVTTSNYANWVQEKPDHLFTGLIGGTSNRAPGVPVRFSGSLIGDKAALTITGAQTEDDAMYFCALWYSTHWVFGGGTKLTVLG
notes: human-murine chimeric IgG1 lambda
With B1, the “Proportion of chimeric antibody positive cells to B cells (%)” value (from here on “Proportion … (%)”) in experiment [1] worked out at 27%; in experiment [7], 56%; in [8], 64%. Also, the OD450 in [2] was determined as 0.72 OD450; in experiment [3], 0.05 OD450; in experiment [4], 0.34 OD450; in experiment [5], 0.06 OD450; in experiment [6], 0.13 OD450; in [9] it was 0.05 OD450. The OD450 in experiment [10] was 0.56 OD450.

B2: F1.62.10 (antibody, human IgG1, kappa, V domains shown)
VH: QVQLQQSGPELVKPGASVKISCKASGYEFSSIWMNWVKQRPGEGLEWIGRIFPGDGEINYNEKFKGKATLTADRSSTTAYMQLSSLTSEDSAVYFCAGWRIYYGTYGAMDYWGQGTSVTVSS
VL: DIQMTQITSSLSASLGDRVTISCRASQDIGNYLNWYQQKPDGTVKLLIYYTSRLHSGVPSRFSGSGSRTDYSLTISNLQQEDIATYFCQQGNTLPWTFGGGTKLEIKR
notes: human-murine chimeric IgG1 kappa
As for B2, the figures for the “Proportion … (%)” value in [1], in experiment [7] and in experiment [8] were 17%, 19% and 24%, respectively. In addition, the OD450 in [2] is 0.36 OD450; in experiment [3] it was 0.06 OD450; in experiment [4] it was 0.07 OD450; in experiment [5] it was 0.05 OD450; in experiment [6] it was 0.05 OD450; in experiment [9], 0.06 OD450. The same molecule returned an OD450 in [10] of 0.18 OD450.

B3: F1.257.3 (antibody, human IgG1, kappa, V domains shown)
VH: QVQLQQSGPELARPGASVKLSCKASGYTFTSYGISWVKQRTGQDLEWIGEIYPKLGTTYYNEKFKDKATLTTDRSSSTAYMALRSLTSEDSAVYFCACPHYYATRGGDYWGQGTTLTVSS
VL: EIVLTQSPATLSVTPGDSVTFSCRASQSISNHLHWYQQKSHESPRLLIRYASQSISGIPSRFSGSGSGTDFTLSLSSVETEDFGVYFCQQSHSWPYTFGGGTKLEIAR
notes: human-murine chimeric IgG1 kappa; VL name legible
Consider B3, for which the “Proportion … (%)” value in experiment [1] was found to be 17%; in experiment [7], 20%; in experiment [8] it was 34%. The OD450 in experiment [2] was determined as 0.18 OD450; in experiment [3], 0.06 OD450; in [4], 0.06 OD450; in experiment [5], 0.05 OD450; in [6], 0.05 OD450; in [9], 0.06 OD450. Also, the OD450 in experiment [10] is 0.07 OD450.

B4: F2.70.2 (antibody, human IgG1, lambda, V domains shown)
VH: EVQLVESGGGLVKPGGSLKLSCAASGFTFSDYGMNWFRQAPEKGLEWVAYISRGSHTIYYADTVKGRFTISRDNAKNTLFLQMTSLRSNDTAMYYCVRMAGYYAMDYWGQGTSVTVSS
VL: QLVLTQSSSASFSLGASAKLTCTLSSQHSSYIIEWYQQQPLKPPKYVMELKKDGSHSTGDGIPDRFSGSSSGADRYLSISNIQPEDEAIYICGVGDTIKEQFVYVFGGGTKVTVLG
notes: as for B1
B4: the “Proportion … (%)” value in experiment [1] was 20%; in [7], 20%; in [8], 34%. Moreover, the OD450 in experiment [2] was 0.11 OD450; in [3], 0.06 OD450; in experiment [4], 0.06 OD450; in [5], 0.07 OD450; in experiment [6], 0.06 OD450; in [9] it was 0.06 OD450. For the same molecule, the OD450 in experiment [10] turned out to be 0.08 OD450.

B5: F2.173.9 (antibody, human IgG1, lambda, V domains shown)
VH: EVQLVESGGDLVKPGESLKLSCEASGFTFSNYAMSWVRQTPDRRLEWVATISSIGSFTYYSDSVKGRFTISRDNVKSTLHLQMNNLKSGDTAIYFCARLGVYFDSWGQGTTLTVSS
VL: QLVLTQSSSASFSLGASAKLTCTLSSQHSTYTIEWYQQQPHKPPKFVMEIKKDGSHYTGDGIPDRFSGSSSGADRYLSISNIQPEDETIYICGVSDMIKDQFVYVFGGGTKVTVLG
notes: as for B1
Turning to B5, the “Proportion … (%)” value in [1] came to 19%; in experiment [7], 43%; in experiment [8], 71%. In addition, the OD450 in [2] worked out at 1.18 OD450; in experiment [3], 0.06 OD450; in [4], 1.25 OD450; in [5], 0.12 OD450; in experiment [6], 0.38 OD450; in experiment [9], 0.06 OD450. Moreover, the OD450 in experiment [10] came out at 1.12 OD450.

B6: F2.180.16 (antibody, human IgG1, lambda, V domains shown)
VH: EVKLVESGGGLVLPGGSLKISCAASGFTFSDYYMYWIRQTPDKRLEWVAYISNTGYSTFYPDSVKGRFTVSRDNAKNTLYLQMSRLQSEDTAMYYCARHGILYAMDYWGQGTSVTVSS
VL: QPVLTQSSSASFSLGASAKLTCTLSSQYSTYTIGWYQQQPLKPPKYVMELKHDGSRHTGDGIPDRFSGSSSGADRYLSISNIQPEDEATYICGVGDTIKEQFMYVFGGGTKVTVLG
notes: as for B1
In the case of B6, the “Proportion … (%)” value in experiment [1] was found to be 16%; in experiment [7], 20%; in experiment [8] it was 23%. The OD450 is 0.06 OD450 in [2]; 0.05 OD450 in experiment [3]; 0.05 OD450 in [4]; 0.05 OD450 in experiment [5]; 0.05 OD450 in [6]; 0.05 OD450 in experiment [9]. This molecule also returned an OD450 in [10] of 0.06 OD450.

B7: F2.104.10 (antibody, human IgG1, lambda, V domains shown)
VH: EVQLVESGGGFVKPGGSLKLSCAASGFTFSDYGMNWFRQAPEKGLEWVAYISRGSHTIYYADTVKGRFTISRDNAENTLFLQMTSLRSNDTAMYYCVRMAGYYAMDYWGQGTSLTVSS
VL: QLVLTQSSSASFSLGASAKLTCTLSSQHSSYIIEWYQQQPLKPPKYVMEVKKDGSHSTGDGIPDRFSGSSSGADRYLSISNIQSEDEAIYICGVGDTIKEQFVYVFGGGTKVTVLG
notes: as for B1
On to B7, for which the “Proportion … (%)” value in [1] turned out to be 19%; in experiment [7] it was 21%; in [8], 26%. In addition, the OD450 in experiment [2] came out at 0.07 OD450; in [3] it was 0.05 OD450; in experiment [4], 0.05 OD450; in [5], 0.05 OD450; in experiment [6], 0.06 OD450; in experiment [9], 0.05 OD450. Further, the OD450 in experiment [10] worked out at 0.07 OD450.

B8: F2.343.16 (antibody, human IgG1, lambda, V domains shown)
VH: QVQLKQSGPGLVQPSQSLSITCTVSGFSLTGYGVQWVRQSPGKGLEWLGVIWGGGGTDYNAAFISRLNIIKDNSKSQVFFKMNSLQADDTAIYYCARYSKYGHFDVWGTGTAVTVSS
VL: QAVVTQESALTTSPGETVTLTCRSSTGAVTTSNYANWVQEKPDHLFTGLIGGTYNRVPGVPARFSGSLIGDKAALTITGAQTEDEAIYFCALWYSNHFWVFGGGTKLTVLG
notes: human-murine chimeric IgG1 lambda; VL name legible
Take B8: the figures for the “Proportion … (%)” value in experiment [1], in experiment [7] and in experiment [8] were 21%, 21% and 22%, respectively. The OD450 in experiment [2] was determined as 0.08 OD450; in [3], 0.05 OD450; in [4], 0.05 OD450; in experiment [5], 0.05 OD450; in experiment [6], 0.05 OD450; in experiment [9] it was 0.05 OD450. The molecule further returned an OD450 in [10] of 0.06 OD450.
